Biological target: DOT1L (1-416), recombinant (Homo sapiens) (UniProt Q8TEK3)
Assay: EMSA
Settings: EMSA: 10 mM HEPES pH 7.3, 20 mM KCl, 1 mM MgCl2, 1 mM DTT, 5% glycerol, 100 ug/mL tRNA, room temperature 30 min; pull-down: Pierce Magnetic RNA-Protein …

Sequence of UniProt Q8TEK3 (Q8TEK3 1-416): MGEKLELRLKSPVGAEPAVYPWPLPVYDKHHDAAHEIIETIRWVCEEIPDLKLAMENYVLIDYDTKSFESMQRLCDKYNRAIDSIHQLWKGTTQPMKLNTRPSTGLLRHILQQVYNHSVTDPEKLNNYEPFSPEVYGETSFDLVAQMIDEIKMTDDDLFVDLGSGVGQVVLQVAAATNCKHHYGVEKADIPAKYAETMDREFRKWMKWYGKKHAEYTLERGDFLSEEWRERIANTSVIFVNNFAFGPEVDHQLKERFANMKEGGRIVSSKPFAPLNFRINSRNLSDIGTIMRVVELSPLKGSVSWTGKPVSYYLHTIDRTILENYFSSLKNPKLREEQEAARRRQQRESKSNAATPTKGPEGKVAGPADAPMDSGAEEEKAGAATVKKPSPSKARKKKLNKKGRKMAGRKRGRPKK

In the case of “GGGACAUUCGAGCAGCUGCUCUGGAGAAACAGCAGGAUCUACGGAAGUUUGUACCCACCGCCUCGCCUGCAGCCUCGGGAGUCUCAACCCAAGCCGGCCCGGCCUUGUAGCCCAGAGCAGCAAAGCCACAGCAGGCAACGCGAGCUAACGCGGGUCGCGCGGAGGUCGGGAGCCCAGGCGGCGGAGGCGGCGGCGGCGCAGUUAUUCCCGGGUGACUCUGGGGACUCGUGCAGAUGGGGGACGCCUCCGGCCACGCACUUGGAGCCA [LAMP5-AS1 503-764]”, the binding is reported as “binds”.
